Data published in paper PMC8017705 (Proceedings of the National Academy of Sciences of the …, 2021).
The star is where a group is joined. Biotin = O=C1N[C@H]2[C@H](CS[C@H]2CCCCC(=O)*)N1

Target: T1, human RORγt ligand binding domain (residues 265 to 518) with an N-terminal His6-tag (human, UniProt P51449-1 265-518)
T1 sequence (looked up): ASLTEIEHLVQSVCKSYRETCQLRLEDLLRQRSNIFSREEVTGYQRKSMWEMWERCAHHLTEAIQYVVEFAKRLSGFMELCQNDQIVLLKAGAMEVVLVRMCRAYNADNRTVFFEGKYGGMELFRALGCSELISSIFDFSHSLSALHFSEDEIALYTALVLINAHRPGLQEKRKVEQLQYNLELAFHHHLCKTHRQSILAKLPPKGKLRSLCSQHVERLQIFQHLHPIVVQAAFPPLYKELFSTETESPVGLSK
Test: AlphaScreen or HTRF

- binding result: binds
B1: N-terminal biotinylated SRC-1 box2 peptide (peptide)
peptide: Biotin-PSSHSSLTARHKILHRLLQEGSPSD-NH2
SMILES: CC[C@H](C)[C@H](NC(=O)[C@H](CCCCN)NC(=O)[C@H](Cc1c[nH]cn1)NC(=O)[C@H](CCCNC(=N)N)NC(=O)[C@H](C)NC(=O)[C@@H](NC(=O)[C@H](CC(C)C)NC(=O)[C@H](CO)NC(=O)[C@H](CO)NC(=O)[C@H](Cc1c[nH]cn1)NC(=O)[C@H](CO)NC(=O)[C@H](CO)NC(=O)[C@@H]1CCCN1C(=O)CCCC[C@@H]1SC[C@@H]2NC(=O)N[C@@H]21)[C@@H](C)O)C(=O)N[C@@H](CC(C)C)C(=O)N[C@@H](Cc1c[nH]cn1)C(=O)N[C@@H](CCCNC(=N)N)C(=O)N[C@@H](CC(C)C)C(=O)N[C@@H](CC(C)C)C(=O)N[C@@H](CCC(N)=O)C(=O)N[C@@H](CCC(=O)O)C(=O)NCC(=O)N[C@@H](CO)C(=O)N1CCC[C@H]1C(=O)N[C@@H](CO)C(=O)N[C@@H](CC(=O)O)C(N)=O
